Assay results published in patent publication US7056715B1, “GST sequences from soybean and their use in the production of herbicide resistant plants” (Syngenta Limited, priority 1999, dated 2006).

B1: GST 3.1: Recombinant soybean Glutathione-S-transferase 3.1, SEQ ID No. 8 (protein)
chain: MAEQDKVILHGMWASPYAKRVELALNFKGIPYEYVEEDLRNKSDLLLKYNPVHKKVPVLVHNGKAIAESMVILEYIDETWKDGPKLLPSDSYKRAQARFWCHFIQDQLMESTFLVVKTDGEAQQKAIDHVYEKLKVLEDGMKTYLGEGNAIISGVENNFGILDIVFCALYGAYKAHEEVIGLKFIVPEKFPVLFSWLMAIAEVEAVKIATPPHEKTVGILQLFRLSALKSSSATE
modifications: Glycine max
B2: GST 2.6: Recombinant soybean Glutathione-S-transferase 2.6, SEQ ID No. 7 (protein)
chain: MSSSQEEVTLLGVVGSPFLHRVQIALKLKGVEYKYLEDDLNNKSDLLLKYNPVYKMIPVLVHNEKPISESLVIVEYIDDTWKNNPILPSDPYQRALARFWAKFIDDKCVVPAWKSAFMTDEKEKEKAKEELFEALSFLENELKGKFFGGEEFGFVDIAAVLIPIIQEIAGLQLFTSEKFPKLSKWSQDFHNHPVVNEVMPPKDQLFAYFKARAQSFVAKRKN
modifications: Glycine max
B3: GST 3.3: Recombinant soybean Glutathione-S-transferase 3.3, SEQ ID No. 10; may also be referred to as GST 3.6 (protein)
chain: MAERDLRLLGAWFSPFALRVQIALNLKGLDYEVVEETLNPKSELLLKSNPVHKKIPVFFHGDKVICESAIIVEYIDEVWSNNALSILPQNAYDRANARFWVSYIDDKWLTSLKSVLATEDDEAKKLHFEQAEEVLEKVEEVFNKCSEGKAYFGGDTIGFVDIGFGSFLSFIRVSENMNERKLLDETKYPGLTLWAETFAADPAVKGLLPETEKLVEFAKILQLKWAAAAAAK
modifications: Glycine max
B4: GST 3.2: Recombinant soybean Glutathione-S-transferase 3.2, SEQ ID No. 9 (protein)
chain: MAEVKLHGFWYSPYTLRVVWTLKLKDIPYQNIEEDRYNKSLQLLEYNPVYKKTPVLVHNGKPLCESMLIVEYIDEIWAHNSLLPADPYERALARFWVKYADDDMFSAVIAFFLSNNDEEREKSIEKIWEHLRVVENQCFGDQKKFFGGDIINIMDIAFGSIFKILVVAEDILDAKVLEDEKFPHLHSWYNNFKDVAVIKENLPDHEKMVAFAKFIREKRLACT
modifications: Glycine max

How the values were obtained:
Type in all cases: biochemical
[1] = GST activity of purified recombinant protein toward acifluorfen; conditions: recombinant enzyme, ±SE, n=2; for GST activity toward acifluorfen, GSH: thiol GSH; for GST activity toward acifluorfen, hGSH: thiol hGSH
Experimental: (§1) 4.2 Nde I or Nco I sites were introduced as appropriate into the 5′ end cDNAs encoding glutathione S-transferase and Bam H1 at the 3′ end using PCR. The cDNA was then cloned into pET-24a or pET-24d as appropriate. The resulting plasmids were introduced into E. coli BL21 (DE3) using standard bacterial transformation procedures known to the skilled artisan. Expression and purification of the recombinant GST was performed using anion-exchange chromatography and S-Hexyl-glutathione affinity chromatography according to the methods known in the art (for example, Skipsey et al., 1997). GST activity of the purified recombinant protein toward CDNB, acetochlor, acifluorfen, chlorimuron-ethyl, fluorodifen. fomesafen and metolachlor in the presence of both glutathione and homoglutathione was performed via assays which are described in Andrews et al., 1997 and Skipsey et al., 1997.

[2] = GST activity of purified recombinant protein toward fluorodifen; conditions: recombinant enzyme, ±SE, n=2; for GST activity toward fluorodifen, GSH: thiol GSH; for GST activity toward fluorodifen, hGSH: thiol hGSH
Experimental: as §1

[3] = GST activity of purified recombinant protein toward metolachlor; conditions: recombinant enzyme, ±SE, n=2; for GST activity toward metolachlor, GSH: thiol GSH; for GST activity toward metolachlor, hGSH: thiol hGSH
Experimental: as §1

[4] = GST activity of purified recombinant protein toward acetochlor; conditions: recombinant enzyme, ±SE, n=2; for GST activity toward acetochlor, GSH: thiol GSH; for GST activity toward acetochlor, hGSH: thiol hGSH
Experimental: as §1

[5] = GST activity of purified recombinant protein toward CDNB; conditions: recombinant enzyme, ±SE, n=2; for GST activity toward CDNB, GSH: thiol GSH; for GST activity toward CDNB, hGSH: thiol hGSH
Experimental: as §1

[6] = GST activity of purified recombinant protein toward fomesafen; conditions: recombinant enzyme, ±SE, n=2; for GST activity toward fomesafen, GSH: thiol GSH; for GST activity toward fomesafen, hGSH: thiol hGSH
Experimental: as §1

| Molecule | GST activity toward acifluorfen, GSH [1] | GST activity toward acifluorfen, hGSH [1] | GST activity toward fluorodifen, GSH [2] | GST activity toward fluorodifen, hGSH [2] | GST activity toward metolachlor, GSH [3] | GST activity toward metolachlor, hGSH [3] | GST activity toward acetochlor, GSH [4] | GST activity toward acetochlor, hGSH [4] | GST activity toward CDNB, GSH [5] | GST activity toward CDNB, hGSH [5] | GST activity toward fomesafen, GSH [6] | GST activity toward fomesafen, hGSH [6] |
| --- | --- | --- | --- | --- | --- | --- | --- | --- | --- | --- | --- | --- |
| B1 | 152.5 pkat mg-1 | 238.5 pkat mg-1 | 1150 pkat mg-1 | 1350 pkat mg-1 | 177.5 pkat mg-1 | 67.5 pkat mg-1 | 190.5 pkat mg-1 | 11.0 pkat mg-1 | 59.2 nkat mg-1 | 59.2 nkat mg-1 | 213.6 pkat mg-1 | 484.6 pkat mg-1 |
| B2 | – | 31.1 pkat mg-1 | – | 19.3 pkat mg-1 | 142.0 pkat mg-1 | 95.5 pkat mg-1 | 352.5 pkat mg-1 | 391.0 pkat mg-1 | 18.7 nkat mg-1 | 19.0 nkat mg-1 | 27.1 pkat mg-1 | 350.5 pkat mg-1 |
| B3 | 123.0 pkat mg-1 | 1350 pkat mg-1 | 360.5 pkat mg-1 | 602.5 pkat mg-1 | 312.0 pkat mg-1 | 264.5 pkat mg-1 | 420.0 pkat mg-1 | – | 82.9 nkat mg-1 | 189.0 nkat mg-1 | 110 pkat mg-1 | 6250 pkat mg-1 |
| B4 | 7.5 pkat mg-1 | 23.2 pkat mg-1 | 78.2 pkat mg-1 | 68.0 pkat mg-1 | 253.0 pkat mg-1 | 191.5 pkat mg-1 | 418.0 pkat mg-1 | 143.0 pkat mg-1 | 24.9 nkat mg-1 | 10.3 nkat mg-1 | 21.3 pkat mg-1 | 201.6 pkat mg-1 |
